One assay has as its system Lu22. Description: Coelenterazine derivatives as substrates of Lu22. Type of assay: biochemical, Metridia longa. Particulars: coelenterazine derivatives 10^-4 M.
A further assay relates to Lu164. Description: Coelenterazine derivatives as substrates of Lu164 (luminescence with CHO-pcDNA3-Lu164 supernatant). Particulars: 10 μl derivative (10^-4 M) + 10 μl supernatant of CHO-pcDNA3-Lu164, 8.7 kV for 30 seconds. The assay is classed as biochemical, Metridia longa. How it is done: In order to identify substrates for Lu164, 10 μl solutions of different coelenterazine derivatives (10^−4 M) were in each case incubated with 10 μl of supernatant from CHO-pcDNA3-Lu164 cell lines and the luminescence was measured. The coelenterazines were obtained from Molecular Probes (USA).

In the next assay the test system is LuAL. In words: Coelenterazine derivatives as substrates of LuAL. Particulars: coelenterazine derivatives 10^-4 M. Type of assay: biochemical, Metridia longa.
Assay [1] in a line: Luciferase activity (chemiluminescence) after constitutive eukaryotic expression in transiently transfected CHO cells. The assay is classed as cell-based. The conditions noted are these: CHO cells transiently transfected with pcDNA3 vectors, 5 μl, coelenterazine 10^-4 M, 9.5 kV for 30 seconds, room temperature. Here is the method: Constitutive eukaryotic expression was affected in CHO cells by transfecting the cells with the expression plasmids pcDNA3-Lu164, pcDNA3-LuAL and pcDNA3-Lu22 in transient experiments. For this, 10 000 cells in DMEM-F12 medium were plated, per well, in 96-well microtiter plates and incubated overnight at 37° C. The transfection was effected using the Fugene 6 kit (Roche) in accordance with the manufacturer's instructions. The transfected cells were incubated overnight at 37° C. in DMEM-F12 medium. The chemiluminescence in the medium (5 ul) and the cell lysate (5 μl) was measured for 30 seconds at 9.5 kV in a luminometer, at room temperature, after adding coelenterazine (10^−4 M in methanol).
Values of 680 000, 670 000 and 510 000 RLU (relative light units) were measured in the case of Lu1 64, LuAL and Lu22, respectively. The expression was effected in CHO cells using the vectors pcDNA3-Lu164, pcDNA3-LuAL and pcDNA3-Lu22.

Assay [2] is described as follows: Luciferase activity (chemiluminescence) of bacterial lysate after adding coelenterazine. The conditions noted are these: 5 μl E. coli BL21(DE3) lysate (5 mg/ml), pTriplEx2 vectors, coelenterazine 10^-4 M, 9.5 kV for 30 seconds. Type of assay: biochemical. Here is the method:
The bacterial expression took place in the E. coli strain BL21(DE3) as a result of transforming the bacteria with the expression plasmids pTriplEX2-Lu164, pTriplEX2-LuAL and pTriplEX2-Lu22. The transformed bacteria were incubated at 37° C. for 3 hours in LB medium and expression was induced for 4 hours by adding IPTG to a final concentration of 1 mM. The induced bacteria were harvested by centrifugation, resuspended in PBS and disrupted by ultrasonication. Coelenterazine (10^−4 M in methanol) or luciferin (Firefly Luciferin) was added to 5 μl of the lysate (5 mg/ml) and the chemiluminescence was measured.
The measurement, in RLU (relative light units), took place at 9.5 kV for 30 seconds. Values of 230 000, 320 000 and 260 000 RLU were measured in the case of Lu1 64, LuAL and Lu22, respectively. The enzymes were expressed in E. coli BL21(DE3) using the vectors pTriplEx2-Lu164, pTriplEx2-LuAL and pTriplEx2-Lu22.

`Oc1ccc(Cc2nc3c(Cc4ccccc4)nc(-c4ccc(O)cc4)cn3c2O)cc1` [coelenterazine]: the “substrate suitability for Lu22 (luminescence)” value with Lu22 is on record as “optimal substrate”. Moreover, the “substrate suitability for Lu164 (luminescence)” value in the assay with Lu164 was “optimal substrate”. Also, the “substrate suitability for LuAL (luminescence)” value with LuAL is given as “optimal substrate”.

B1: Lu164: coelenterazine-dependent secreted luciferase from Metridia longa, amino acid sequence SEQ ID NO: 4 (protein, listed as Metridia longa)
chain: MDIKVVFTLVFSALVQAKSTEFDPNIDIVGLEGKFGITNLETDLFTIWETMEVMIKADIADTDRASNFVATETDANRGKMPGKKLPLAVIMEMEANAFKAGCTRGCLICLSKIKCTAKMKVYIPGRCHDYGGDKKTGQAGIVGAIVDIPEISGFKEMAPMEQFIAQVDRCASCTTGCLKGLANVKCSELLKKWLPDRCASFADKIQKEVHNIKGMAGDR
B1: the “chemiluminescence, RLU (relative light units)” value in assay [1] is 680 000 RLU; in assay [2], 230 000 RLU.

B2: Lu22: coelenterazine-dependent secreted luciferase from Metridia longa, amino acid sequence SEQ ID NO: 6 (protein, listed as Metridia longa)
chain: MGVKLIFAVVCVAVAQAATIQENFEDIDLVAIGGSFASDVDANRGGHGGHPGKKMPKEVLMEMEANAKRAGCHRGCLVCLSHIKCTAQMQKFIPGRCHSYAGDKDSAQGGIAGGAIVDIPEIAGFKEMKPMEQFIAQVDLCEDCTTGCLKGLANVHCSDLLKKWLPSRCKTFASKIQSQVDTIKGLAGDR
With B2, the “chemiluminescence, RLU (relative light units)” value in assay [1] was 510 000 RLU; in assay [2], 260 000 RLU.

B3: LuAL: coelenterazine-dependent secreted luciferase from Metridia longa, amino acid sequence SEQ ID NO: 2 (protein, listed as Metridia longa)
chain: MDMRVIFALVFSSLVQAKSTEFDPNINIVGLEGKFGITNLETDLFTIWETMDVIKSDITDTDRVSNFVATETDANRGKMPGKKLPLAVIMEMEANAFKAGCTRGCLICLSKIKCTAKMKVYIPGRCHDYGGDKKTGQAGIVGAIVDIPEISGFKEMAPMEQFIAQVDLCATCTTGCLKGLANVKCSELLKKWLPGRCASFADKIQKEVHNIKGMAGDR
Regarding B3, the “chemiluminescence, RLU (relative light units)” value is 670 000 RLU in assay [1] and 320 000 RLU in assay [2].

For the origin of these results see patent US8236540B2, “Isolated luciferases and the use thereof” (Bayer Intellectual Property GmbH, priority 2000, dated 2012).
